How the values were obtained:
HLA-A*26:01 [1] = test: IEDB peptide-MHC binding, purified MHC/competitive/fluorescence; filed as Kd, often an IC50 or EC50 that approximates it; ≥ and ≤ were set here for values at or beyond the usual limits of such assays; conditions: source organism: Orthohantavirus tulaense
HLA-B*46:01 = test: as above
HLA-B*57:01 = test: as above; conditions: source organism: Orthohantavirus tulaense
HLA-B*35:01 [2] = test: as above
HLA-B*58:01 [3] = test: as above
HLA-A*02:01 [4] = test: as above; conditions: source organism: Orthohantavirus tulaense
HLA-A*69:01 [5] = test: as above; conditions: source organism: Orthohantavirus tulaense
HLA-B*27:03 = test: as above; conditions: source organism: Orthohantavirus tulaense
HLA-A*02:11 = test: IEDB peptide-MHC binding, purified MHC/direct/fluorescence; filed as Kd, often an IC50 or EC50 that approximates it; ≥ and ≤ were set here for values at or beyond the usual limits of such assays; conditions: source organism: Orthohantavirus tulaense
HLA-A*68:02 = test: as above; conditions: source organism: Orthohantavirus tulaense
HLA-A*03:01 [6] = test: as above
HLA-A*02:16 = test: as above; conditions: source organism: Orthohantavirus tulaense
HLA-A*02:03 = test: as above; conditions: source organism: Orthohantavirus tulaense
HLA-A*02:12 = test: as above; conditions: source organism: Orthohantavirus tulaense
HLA-B*15:01 [7] = test: as above
HLA-A*02:19 = test: as above; conditions: source organism: Orthohantavirus tulaense
HLA-B*27:05 [8] = test: IEDB peptide-MHC binding, purified MHC/competitive/fluorescence; filed as Kd, often an IC50 or EC50 that approximates it; ≥ and ≤ were set here for values at or beyond the usual limits of such assays
HLA-A*26:01 [9] = test: IEDB peptide-MHC binding, purified MHC/direct/fluorescence; filed as Kd, often an IC50 or EC50 that approximates it; ≥ and ≤ were set here for values at or beyond the usual limits of such assays
HLA-B*08:01 [10] = test: as above
HLA-B*07:02 [11] = test: as above
HLA-B*44:02 = test: as above; conditions: source organism: Giardia lamblia ATCC 50803
HLA-B*27:05 [12] = test: as above
HLA-A*31:01 [13] = test: as above
HLA-B*40:01 = test: as above; conditions: source organism: Giardia lamblia ATCC 50803
HLA-B*35:01 [14] = test: as above
HLA-A*11:01 = test: as above
HLA-B*58:01 [15] = test: as above
HLA-A*02:01 [16] = test: as above
HLA-A*01:01 [17] = test: as above
HLA-A*69:01 [18] = test: as above
HLA-B*15:03 = test: IEDB peptide-MHC binding, purified MHC/competitive/radioactivity; filed as Kd, often an IC50 or EC50 that approximates it; ≥ and ≤ were set here for values at or beyond the usual limits of such assays; conditions: source organism: Vaccinia virus WR
HLA-B*08:01 [19] = test: as above; conditions: source organism: Vaccinia virus WR
HLA-A*30:01 = test: as above; conditions: source organism: Vaccinia virus WR
HLA-A*32:01 = test: as above; conditions: source organism: Vaccinia virus WR
HLA-B*15:01 [20] = test: as above; conditions: source organism: Vaccinia virus WR
HLA-B*15:42 = test: IEDB peptide-MHC binding, purified MHC/competitive/fluorescence; filed as Kd, often an IC50 or EC50 that approximates it; ≥ and ≤ were set here for values at or beyond the usual limits of such assays; conditions: source organism: Yersinia pestis Nepal516
HLA-B*07:02 [21] = test: as above
HLA-B*45:06 = test: as above; conditions: source organism: Yersinia pestis Nepal516
HLA-B*83:01 = test: as above; conditions: source organism: Yersinia pestis Nepal516
HLA-B*51:01 = test: as above; conditions: source organism: Yersinia pestis Nepal516
HLA-B*08:01 [22] = test: as above; conditions: source organism: Yersinia pestis Nepal516
HLA-A*31:01 [23] = test: as above; conditions: source organism: Yersinia pestis Nepal516
HLA-A*03:01 [24] = test: as above
HLA-B*15:01 [25] = test: as above; conditions: source organism: Salmonella enterica subsp. enterica serovar Typhi
HLA-A*01:01 [26] = test: as above; conditions: source organism: Salmonella enterica subsp. enterica serovar Typhi
[27] = source organism: Orthohantavirus tulaense
[28] = source organism: Giardia lamblia ATCC 50803
[29] = source organism: Yersinia pestis Nepal516
[30] = source organism: Vibrio vulnificus
[31] = source organism: Mycobacterium tuberculosis F11
[32] = source organism: Salmonella enterica subsp. enterica serovar Typhi

For FGAAVSLLF, which Kd (HLA-A*26:01 [1]) is on record?
The Kd was ≥ 20000 nM.

What about the Kd (HLA-B*46:01; [27]) of the same sequence?
Its Kd is ≥ 20000 nM.

What about the Kd (HLA-B*57:01) of the same sequence?
Its Kd is ≥ 20000 nM.

What about the Kd (HLA-B*35:01 [2]; [27]) of the same sequence?
Its Kd is 2.7 nM.

And the Kd (HLA-B*58:01 [3]; [27])?
Its Kd is 1.3 nM.

What about the Kd (HLA-A*02:01 [4]) of the same sequence?
The Kd was ≥ 20000 nM.

What about the Kd (HLA-A*69:01 [5]) of the same sequence?
Its Kd is ≥ 20000 nM.

And the Kd (HLA-B*27:03)?
The Kd was ≥ 20000 nM.

What about the Kd (HLA-A*02:11) of the same sequence?
The Kd was ≥ 20000 nM.

What about the Kd (HLA-A*68:02) of the same sequence?
The Kd was ≥ 20000 nM.

What about the Kd (HLA-A*03:01 [6]; [27]) of the same sequence?
The Kd was ≥ 20000 nM.

What about the Kd (HLA-A*02:16) of the same sequence?
Its Kd is ≥ 20000 nM.

And the Kd (HLA-A*02:03)?
Its Kd is ≥ 20000 nM.

What about the Kd (HLA-A*02:12) of the same sequence?
Its Kd is ≥ 20000 nM.

What about the Kd (HLA-B*15:01 [7]; source organism: Orthohantavirus andesense) of the same sequence?
The Kd was 53.6 nM.

What about the Kd (HLA-A*02:19) of the same sequence?
Its Kd is ≥ 20000 nM.

For YRLFKHGLK, which Kd (HLA-B*27:05 [8]; source organism: Influenza A virus (A/Memphis/1/1978(H1N1))) is on record?
The Kd was 217 nM.

What does the source list for YQYGDNLIL?
Kd (HLA-A*26:01 [9]; [28]): ≥ 20000 nM; Kd (HLA-B*08:01 [10]; [28]): ≥ 20000 nM; Kd (HLA-B*07:02 [11]; [28]): ≥ 20000 nM; Kd (HLA-B*44:02): ≥ 20000 nM; Kd (HLA-B*27:05 [12]; [28]): 430 nM; Kd (HLA-A*31:01 [13]; [28]): ≥ 20000 nM; Kd (HLA-B*40:01): 77.7 nM; Kd (HLA-B*35:01 [14]; [28]): 410 nM; Kd (HLA-A*03:01 [6]; [28]): ≥ 20000 nM; Kd (HLA-A*11:01; [28]): ≥ 20000 nM; Kd (HLA-B*58:01 [15]; [28]): ≥ 20000 nM; Kd (HLA-A*02:01 [16]; [28]): 22.1 nM; Kd (HLA-B*15:01 [7]; [28]): 89.2 nM; Kd (HLA-A*01:01 [17]; [28]): ≥ 20000 nM; Kd (HLA-A*69:01 [18]; [28]): ≥ 20000 nM

How did the Kd (HLA-B*15:03) turn out when FAAVEGIFF was run?
The Kd was 309 nM.

With TSNWTGNYF as the sequence, how does the Kd (HLA-B*08:01 [19]) read?
The Kd was 15600 nM.

What about the Kd (HLA-A*30:01) of the same sequence?
The Kd was 2270 nM.

And the Kd (HLA-B*15:03)?
The Kd was 894 nM.

And the Kd (HLA-A*32:01)?
The Kd was 11400 nM.

And the Kd (HLA-B*15:01 [20])?
The Kd was 7730 nM.

ALVITINYF was tested. Which Kd (HLA-B*15:03) did it give?
The Kd was 666 nM.

Which results are given for MPAIFFSIV?
Kd (HLA-B*15:42): ≥ 5000 nM; Kd (HLA-B*07:02 [21]; [29]): 84.1 nM; Kd (HLA-B*35:01 [2]; [29]): 1.2 nM; Kd (HLA-B*45:06): ≥ 5000 nM; Kd (HLA-B*83:01): 642 nM; Kd (HLA-B*51:01): 1320 nM

How did the Kd (HLA-B*15:03) turn out when ILVNQYSHM was run?
Its Kd is 37.4 nM.

AKTSTLIFF was tested. Which Kd (HLA-B*15:03) did it give?
Its Kd is 1.56 nM.

Which Kd (HLA-B*27:05 [8]; source organism: Influenza A virus) does the source give for GRVTVSTKR here?
Its Kd is 553 nM.

What does the source list for EEVWRDPYL?
Kd (HLA-A*26:01 [9]; [30]): ≥ 20000 nM; Kd (HLA-B*08:01 [10]; [30]): ≥ 20000 nM; Kd (HLA-B*07:02 [11]; [30]): ≥ 20000 nM; Kd (HLA-B*27:05 [12]; [30]): ≥ 20000 nM; Kd (HLA-A*31:01 [13]; [30]): ≥ 20000 nM; Kd (HLA-B*35:01 [14]; [30]): 23.9 nM; Kd (HLA-A*03:01 [6]; [30]): ≥ 20000 nM; Kd (HLA-A*11:01; [30]): ≥ 20000 nM; Kd (HLA-B*58:01 [15]; [30]): ≥ 20000 nM; Kd (HLA-A*02:01 [16]; [30]): ≥ 20000 nM; Kd (HLA-B*15:01 [7]; [30]): ≥ 20000 nM; Kd (HLA-A*01:01 [17]; [30]): ≥ 20000 nM; Kd (HLA-A*69:01 [18]; [30]): ≥ 20000 nM

LPACVYGLAV was tested. Which Kd (HLA-B*07:02 [21]; source organism: Influenza A virus (A/parakeet/Narita/92A/98(H9N2))) did it give?
The Kd was 39.4 nM.

For KIYNVTNPF, which Kd (HLA-B*15:03) is on record?
The Kd was 7.54 nM.

And the Kd (HLA-A*32:01)?
Its Kd is 4.25 nM.

What about the Kd (HLA-B*15:01 [20]) of the same sequence?
Its Kd is 2.72 nM.

Which Kd (HLA-B*46:01; [31]) does the source give for FSIPVTFSY here?
Its Kd is 68.6 nM.

And the Kd (HLA-B*35:01 [2]; [31])?
The Kd was ≤ 0.1 nM.

And the Kd (HLA-B*58:01 [3]; [31])?
Its Kd is 0.7 nM.

And the Kd (HLA-A*01:01 [17]; source organism: Mycobacterium tuberculosis)?
Its Kd is 316 nM.

For FIRLRFAFK, which Kd (HLA-B*08:01 [22]) is on record?
Its Kd is ≥ 20000 nM.

What about the Kd (HLA-A*31:01 [23]) of the same sequence?
Its Kd is 17.3 nM.

What about the Kd (HLA-A*03:01 [24]; [29]) of the same sequence?
The Kd was ≥ 20000 nM.

For ILAPNPNRF, which Kd (HLA-B*15:03) is on record?
Its Kd is 26.1 nM.

With YQNHGFVSF as the sequence, how does the Kd (HLA-B*15:03) read?
The Kd was 2.43 nM.

And the Kd (HLA-A*32:01)?
The Kd was 358 nM.

And the Kd (HLA-B*15:01 [20])?
The Kd was 0.173 nM.

How did the Kd (HLA-A*03:01 [24]; [32]) turn out when MTAAQIRRY was run?
The Kd was 3500 nM.

What about the Kd (HLA-B*58:01 [3]; [32]) of the same sequence?
The Kd was ≥ 20000 nM.

And the Kd (HLA-B*15:01 [25])?
Its Kd is 168 nM.

What about the Kd (HLA-A*01:01 [26]) of the same sequence?
Its Kd is 243 nM.
